For assay [1], the target named is GFP-ERα (human) (UniProt P03372). The experiment in a line: cell-based or functional assay.
Assay [2] concerns the target Myc-tagged estrogen receptor beta (UniProt O08537). The experiment in a line: cell-based or functional assay.

Chain of Myc-tagged estrogen receptor beta (O08537 whole entry): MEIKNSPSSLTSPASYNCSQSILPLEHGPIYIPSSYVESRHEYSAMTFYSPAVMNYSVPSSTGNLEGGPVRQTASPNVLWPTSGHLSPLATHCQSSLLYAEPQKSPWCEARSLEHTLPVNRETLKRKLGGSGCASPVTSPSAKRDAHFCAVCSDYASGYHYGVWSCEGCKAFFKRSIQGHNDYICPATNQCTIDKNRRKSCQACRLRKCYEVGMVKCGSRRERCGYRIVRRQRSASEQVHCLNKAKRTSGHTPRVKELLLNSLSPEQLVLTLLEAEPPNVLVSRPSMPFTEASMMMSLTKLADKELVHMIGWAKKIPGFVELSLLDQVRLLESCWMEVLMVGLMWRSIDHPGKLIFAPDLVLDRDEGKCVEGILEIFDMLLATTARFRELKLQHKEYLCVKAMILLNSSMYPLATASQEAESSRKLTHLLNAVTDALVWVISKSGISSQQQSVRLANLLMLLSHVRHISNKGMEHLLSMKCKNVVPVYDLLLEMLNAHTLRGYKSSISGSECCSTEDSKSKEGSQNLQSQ
Chain of GFP-ERα (human) (P03372 whole entry): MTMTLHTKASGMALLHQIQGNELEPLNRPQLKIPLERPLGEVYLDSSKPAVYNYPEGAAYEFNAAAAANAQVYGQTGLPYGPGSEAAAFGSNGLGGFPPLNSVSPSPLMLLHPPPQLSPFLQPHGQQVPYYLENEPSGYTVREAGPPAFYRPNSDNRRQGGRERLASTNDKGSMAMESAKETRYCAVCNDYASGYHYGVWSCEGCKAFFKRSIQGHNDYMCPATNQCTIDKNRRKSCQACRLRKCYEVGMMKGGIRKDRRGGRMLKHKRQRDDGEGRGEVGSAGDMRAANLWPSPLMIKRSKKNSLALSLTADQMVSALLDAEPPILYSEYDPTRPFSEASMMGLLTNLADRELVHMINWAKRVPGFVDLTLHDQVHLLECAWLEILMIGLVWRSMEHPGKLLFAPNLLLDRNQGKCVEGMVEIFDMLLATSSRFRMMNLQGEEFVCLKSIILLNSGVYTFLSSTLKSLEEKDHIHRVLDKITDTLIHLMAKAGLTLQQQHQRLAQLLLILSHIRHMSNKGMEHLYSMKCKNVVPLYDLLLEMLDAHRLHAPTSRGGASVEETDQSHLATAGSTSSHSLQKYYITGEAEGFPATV

For the substance “WDR13 (overexpressed in the luciferase assay, construct not stated) (from UniProt Q91V09 1-485)”, the ERE-driven luciferase activity (ERE-TATA-LUC reporter in HEK 293 cells) (fold reduction) in assay [1] and in assay [2] was 2 each time.

The values above are taken from patent US20140157444A1.
